Data: article PMC11417369, “DNA sequence and chromatin differentiate sequence-specific transcription factor binding in the human malaria parasite Plasmodium falciparum”

T1: AP2-LT D1 (Plasmodium falciparum, UniProt Q8IAM1 2520-2577)
T1 sequence: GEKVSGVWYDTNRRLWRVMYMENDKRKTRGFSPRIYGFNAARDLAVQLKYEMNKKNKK

B1: CACACA_site1334 (dsDNA)
DNA 1: ATTACATACACGCGCACACACAAAAAAAAAAAAAAA
DNA 2: TTTTTTTTTTTTTTTGTGTGTGCGCGTGTATGTAAT
B2: CACACA_site841 (dsDNA)
DNA 1: GGCATGACTATCTGCACACATAAAAATAAGAAATAC
DNA 2: GTATTTCTTATTTTTATGTGTGCAGATAGTCATGCC
B3: CACACA_site1627 (dsDNA)
DNA 1: AAGAAAAAGATGCGCATACACACAGATGAATAACAA
DNA 2: TTGTTATTCATCTGTGTGTATGCGCATCTTTTTCTT
B4: CACACA_negctrl_site861 (dsDNA)
DNA 1: TTTTAAAAATTAAAAAAATTAAATGTAAAAAAATGA
DNA 2: TCATTTTTTTACATTTAATTTTTTTAATTTTTAAAA
B5: CACACA_negctrl_site344 (dsDNA)
DNA 1: TTTTGAATATGGATCTTATATATATTAAATAAATAA
DNA 2: TTATTTATTTAATATATATAAGATCCATATTCAAAA
B6: CACACA_site9215 (dsDNA)
DNA 1: ATATATATATATATTCCACACACACCCAAAAAAAAA
DNA 2: TTTTTTTTTGGGTGTGTGTGGAATATATATATATAT
B7: CACACA_site5877 (dsDNA)
DNA 1: TATAGCATATCTCACACACACATAATGAATATTATA
DNA 2: TATAATATTCATTATGTGTGTGTGAGATATGCTATA
B8: CACACA_negctrl_site108 (dsDNA)
DNA 1: TTTTTAATTTAAAAAAATAATATTTTATATTCCGAA
DNA 2: TTCGGAATATAAAATATTATTTTTTTAAATTAAAAA
B9: CACACA_negctrl_site1467 (dsDNA)
DNA 1: TTATATAATGACAAAAAAAAAAAAAAAAAAAAAAAA
DNA 2: TTTTTTTTTTTTTTTTTTTTTTTTGTCATTATATAA
B10: CACACA_negctrl_site8 (dsDNA)
DNA 1: AAATTATATATAATAAATAATTTCTTTTTCTAAAAG
DNA 2: CTTTTAGAAAAAGAAATTATTTATTATATATAATTT
B11: CACACA_site8439 (dsDNA)
DNA 1: AGGTGAGCTCAGACTACACACACAAAGAAAAAAATA
DNA 2: TATTTTTTTCTTTGTGTGTGTAGTCTGAGCTCACCT
B12: CACACA_negctrl_site1012 (dsDNA)
DNA 1: ATAATTTCTATTTCACAAAAAAAAAAAAAAAAAAAA
DNA 2: TTTTTTTTTTTTTTTTTTTTGTGAAATAGAAATTAT
B13: CACACA_negctrl_site775 (dsDNA)
DNA 1: TTGTATCTTCATTTTATCAGAAAAAAAAAAAAAAAT
DNA 2: ATTTTTTTTTTTTTTTCTGATAAAATGAAGATACAA
B14: CACACA_negctrl_site159 (dsDNA)
DNA 1: TTTTTTTATTATTCTTATATAAAAATTTTTTTTAAT
DNA 2: ATTAAAAAAAATTTTTATATAAGAATAATAAAAAAA
B15: CACACA_negctrl_site1823 (dsDNA)
DNA 1: TATTTCATCTTATTTTAGGAAAAACTAATATATAAG
DNA 2: CTTATATATTAGTTTTTCCTAAAATAAGATGAAATA
B16: CACACA_negctrl_site1701 (dsDNA)
DNA 1: TTTTTTCAATTTTTTTTAAATAAACCACAAAAAAAA
DNA 2: TTTTTTTTGTGGTTTATTTAAAAAAAATTGAAAAAA
B17: CACACA_negctrl_site1568 (dsDNA)
DNA 1: TTTTTTATAAATCAAATGAAAAATAAACTATTCAGA
DNA 2: TCTGAATAGTTTATTTTTCATTTGATTTATAAAAAA
B18: CACACA_site8515 (dsDNA)
DNA 1: ATAATATATATACAAACACACAATTGCGTCCACATT
DNA 2: AATGTGGACGCAATTGTGTGTTTGTATATATATTAT
B19: CACACA_negctrl_site333 (dsDNA)
DNA 1: GAATGAATGATAAATTTTTTTTTCTTTTTTTTTTTG
DNA 2: CAAAAAAAAAAAGAAAAAAAAATTTATCATTCATTC
B20: CACACA_site1127 (dsDNA)
DNA 1: TATTTTTCCATATGCACACACACCGTATATATAATA
DNA 2: TATTATATATACGGTGTGTGTGCATATGGAAAAATA
B21: CACACA_negctrl_site170 (dsDNA)
DNA 1: TTTGTTAAAAATATATTATGAATAAAAATATATTTT
DNA 2: AAAATATATTTTTATTCATAATATATTTTTAACAAA
B22: CACACA_negctrl_site736 (dsDNA)
DNA 1: TACTTATATTATTTTATTATTAAATTTAAAACGAAA
DNA 2: TTTCGTTTTAAATTTAATAATAAAATAATATAAGTA
B23: CACACA_negctrl_site1706 (dsDNA)
DNA 1: TTACACATATTTTTAATTATTCTGAATTCAAAAAAA
DNA 2: TTTTTTTGAATTCAGAATAATTAAAAATATGTGTAA
B24: CACACA_site2529 (dsDNA)
DNA 1: ACCTAAAATAACTACACACACATAAAAAAAAAAAAA
DNA 2: TTTTTTTTTTTTTATGTGTGTGTAGTTATTTTAGGT
B25: CACACA_negctrl_site797 (dsDNA)
DNA 1: AAATGTATAATTTTTTAATACACTTATTTAAAATAA
DNA 2: TTATTTTAAATAAGTGTATTAAAAAATTATACATTT
B26: CACACA_negctrl_site1118 (dsDNA)
DNA 1: ATTATCAAAAAAAAAAAAAAAAAAAAAAAAAAAAAA
DNA 2: TTTTTTTTTTTTTTTTTTTTTTTTTTTTTTGATAAT
B27: CACACA_negctrl_site1281 (dsDNA)
DNA 1: TAAAATTAAATGAAATCATTATTCATTTTTATTTTA
DNA 2: TAAAATAAAAATGAATAATGATTTCATTTAATTTTA
B28: CACACA_site2704 (dsDNA)
DNA 1: GCCATTGTACCATCCACACACATATATATATGTATA
DNA 2: TATACATATATATATGTGTGTGGATGGTACAATGGC
B29: CACACA_negctrl_site1629 (dsDNA)
DNA 1: TTTTTCTTTCTATTTATCAATATTAAAAAAAAAAAA
DNA 2: TTTTTTTTTTTTAATATTGATAAATAGAAAGAAAAA
B30: CACACA_negctrl_site442 (dsDNA)
DNA 1: TGGTTTCAATAATTAATAAAATATATTATTGTGAAA
DNA 2: TTTCACAATAATATATTTTATTAATTATTGAAACCA
B31: CACACA_negctrl_site884 (dsDNA)
DNA 1: TATTAATCTTTTTTTAAACAAAAAATTAAGCAAATT
DNA 2: AATTTGCTTAATTTTTTGTTTAAAAAAAGATTAATA
B32: CACACA_site1322 (dsDNA)
DNA 1: CACGAACACAAACACAAACACACATCATATATATAT
DNA 2: ATATATATATGATGTGTGTTTGTGTTTGTGTTCGTG

Each binder was assayed against T1, AP2-LT D1 (assay: gcPBM; about 25 ug protein; PBS, 1% milk, 0.2 mg/ml BSA, salmon testes DNA, 0.03% Triton X-100). Conditions: tags: N-terminal GST (pGEX-4T-1), kept; label: surface-attached array probe.

| Binder | binding signal |
| --- | --- |
| B1 | 9.87 ln median PBM intensity, better of two orientations |
| B2 | 9.74 ln median PBM intensity, better of two orientations |
| B3 | 9.7 ln median PBM intensity, better of two orientations |
| B4 | 8.44 ln median PBM intensity, better of two orientations |
| B5 | 8.27 ln median PBM intensity, better of two orientations |
| B6 | 9.85 ln median PBM intensity, better of two orientations |
| B7 | 9.72 ln median PBM intensity, better of two orientations |
| B8 | 8.25 ln median PBM intensity, better of two orientations |
| B9 | 8.49 ln median PBM intensity, better of two orientations |
| B10 | 8.42 ln median PBM intensity, better of two orientations |
| B11 | 9.69 ln median PBM intensity, better of two orientations |
| B12 | 8.47 ln median PBM intensity, better of two orientations |
| B13 | 8.43 ln median PBM intensity, better of two orientations |
| B14 | 8.48 ln median PBM intensity, better of two orientations |
| B15 | 8.32 ln median PBM intensity, better of two orientations |
| B16 | 8.15 ln median PBM intensity, better of two orientations |

| Binder | binding signal |
| --- | --- |
| B17 | 8.3 ln median PBM intensity, better of two orientations |
| B18 | 9.67 ln median PBM intensity, better of two orientations |
| B19 | 8.4 ln median PBM intensity, better of two orientations |
| B20 | 9.79 ln median PBM intensity, better of two orientations |
| B21 | 8.37 ln median PBM intensity, better of two orientations |
| B22 | 8.39 ln median PBM intensity, better of two orientations |
| B23 | 8.38 ln median PBM intensity, better of two orientations |
| B24 | 9.65 ln median PBM intensity, better of two orientations |
| B25 | 8.49 ln median PBM intensity, better of two orientations |
| B26 | 8.29 ln median PBM intensity, better of two orientations |
| B27 | 8.47 ln median PBM intensity, better of two orientations |
| B28 | 9.64 ln median PBM intensity, better of two orientations |
| B29 | 8.1 ln median PBM intensity, better of two orientations |
| B30 | 8.47 ln median PBM intensity, better of two orientations |
| B31 | 8.28 ln median PBM intensity, better of two orientations |
| B32 | 9.81 ln median PBM intensity, better of two orientations |
